Target: T1, wildtype αEβ7 ectodomain (human, UniProt P38570 19-1123; P26010 20-723, N-linked glycan at N303 (N321 in the legend of Figure 4))
T1 construct: signal peptide in the construct; integrin alpha-E (CD103) ectodomain, M1-H1123 (limits count on the precursor); integrin beta-7 ectodomain, M1-H723 (limits count on the precursor); Wild-type αE construct 'used for integrin:e-cadherin complex'; The αEβ7 of the BLI assay is not specified; also called integrin αEβ7; source: ExpiCHO cells, α and β co-transfected, secreted, purified (HisTrap, SEC)
T1 sequence (P38570 19-1123, chain 1 of 2): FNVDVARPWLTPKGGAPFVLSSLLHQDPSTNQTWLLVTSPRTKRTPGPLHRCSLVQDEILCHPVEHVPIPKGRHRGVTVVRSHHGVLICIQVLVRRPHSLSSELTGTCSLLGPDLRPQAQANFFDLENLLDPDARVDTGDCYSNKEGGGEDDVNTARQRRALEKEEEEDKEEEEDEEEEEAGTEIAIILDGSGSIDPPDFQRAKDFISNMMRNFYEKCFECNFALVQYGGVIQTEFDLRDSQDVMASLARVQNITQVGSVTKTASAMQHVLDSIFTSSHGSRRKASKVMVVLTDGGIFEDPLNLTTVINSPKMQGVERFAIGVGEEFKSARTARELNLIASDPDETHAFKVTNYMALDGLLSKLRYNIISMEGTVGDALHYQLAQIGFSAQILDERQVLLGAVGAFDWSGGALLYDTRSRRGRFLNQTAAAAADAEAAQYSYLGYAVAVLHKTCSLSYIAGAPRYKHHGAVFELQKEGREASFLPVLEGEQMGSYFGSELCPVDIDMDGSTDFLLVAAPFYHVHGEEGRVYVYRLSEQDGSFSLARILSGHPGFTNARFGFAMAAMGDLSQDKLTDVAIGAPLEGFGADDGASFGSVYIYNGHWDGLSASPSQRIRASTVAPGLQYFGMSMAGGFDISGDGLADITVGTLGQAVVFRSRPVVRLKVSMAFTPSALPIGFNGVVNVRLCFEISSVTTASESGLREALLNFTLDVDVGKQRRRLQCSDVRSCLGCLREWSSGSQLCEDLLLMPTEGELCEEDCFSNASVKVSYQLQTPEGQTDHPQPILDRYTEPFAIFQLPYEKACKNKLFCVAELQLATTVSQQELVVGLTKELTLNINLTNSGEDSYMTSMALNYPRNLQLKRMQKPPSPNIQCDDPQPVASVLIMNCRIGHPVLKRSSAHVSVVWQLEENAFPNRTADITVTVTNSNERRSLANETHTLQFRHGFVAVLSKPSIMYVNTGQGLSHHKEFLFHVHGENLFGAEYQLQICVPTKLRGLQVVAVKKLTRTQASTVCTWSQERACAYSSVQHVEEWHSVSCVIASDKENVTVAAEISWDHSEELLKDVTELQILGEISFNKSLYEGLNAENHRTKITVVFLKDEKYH
T1 sequence (P26010 20-723, chain 2 of 2): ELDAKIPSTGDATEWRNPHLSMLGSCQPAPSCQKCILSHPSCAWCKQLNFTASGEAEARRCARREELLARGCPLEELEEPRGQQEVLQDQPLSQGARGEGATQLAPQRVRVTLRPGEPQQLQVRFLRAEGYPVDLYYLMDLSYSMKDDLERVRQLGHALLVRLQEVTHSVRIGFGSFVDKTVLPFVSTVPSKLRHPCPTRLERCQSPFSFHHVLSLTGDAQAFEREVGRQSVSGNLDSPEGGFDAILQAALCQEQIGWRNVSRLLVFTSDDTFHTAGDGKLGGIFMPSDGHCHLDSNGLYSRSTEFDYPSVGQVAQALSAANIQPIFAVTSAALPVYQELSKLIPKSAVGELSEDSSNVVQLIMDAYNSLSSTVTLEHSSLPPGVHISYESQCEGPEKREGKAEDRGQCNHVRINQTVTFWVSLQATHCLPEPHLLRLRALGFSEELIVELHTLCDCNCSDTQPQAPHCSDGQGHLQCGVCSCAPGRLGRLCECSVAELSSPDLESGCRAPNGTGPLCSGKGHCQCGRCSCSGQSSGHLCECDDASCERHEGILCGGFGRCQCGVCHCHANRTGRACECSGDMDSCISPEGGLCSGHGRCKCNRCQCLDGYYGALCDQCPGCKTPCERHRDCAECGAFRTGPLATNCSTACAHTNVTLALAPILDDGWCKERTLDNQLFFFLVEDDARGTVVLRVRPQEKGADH
Assay: BLI; Octet Red, 25°C; Fc-tagged E-cadherin ectodomain loaded on Protein A biosensors; αEβ7 500nM to 16.125nM in activating buffer with 0.1% BSA and 0.02% Tween-20; 1:1 model, global fit of three replicates
Conditions: both partners purified

B1: Fc-tagged E-cadherin ectodomain (Fc fusion, UniProt P12830 155-698, looked up)
chain: DWVIPPISCPENEKGPFPKNLVQIKSNKDKEGKVFYSITGQGADTPPVGVFIIERETGWLKVTEPLDRERIATYTLFSHAVSSNGNAVEDPMEILITVTDQNDNKPEFTQEVFKGSVMEGALPGTSVMEVTATDADDDVNTYNAAIAYTILSQDPELPDKNMFTINRNTGVISVVTTGLDRESFPTYTLVVQAADLQGEGLSTTATAVITVTDTNDNPPIFNPTTYKGQVPENEANVVITTLKVTDADAPNTPAWEAVYTILNDDGGQFVVTTNPVNNDGILKTAKGLDFEAKQQYILHVAVTNVVPFEVSLTTSTATVTVDVLDVNEAPIFVPPEKRVEVSEDFGVGQEITSYTAQEPDTFMEQKITYRIWRDTANWLEINPDTGAISTRAELDREDFEHVKNSTYTALIIATDNGSPVATGTGTLLLILSDVNDNAPIPEPRTIFFCERNPKPQVINIIDADLPPNTSPFTAELTHGASANWTIQYNDPTQESIILKPKMALEVGDYKINLKLMDNQNKDQVTTLEVSVCDCEGAAGVCRKA
notes: E-cadherin ectodomain, D155-A698 (limits count on the precursor); Held on Protein A biosensors by the Fc; source: ExpiCHO cells, secreted, purified (HiTrap Protein G, SEC); not shown: Fc (human), C-terminal, kept
Kd: 51 ± 7.9 nM
